# From the DeepSol protein solubility set
# Assay: soluble on expression in E. coli; label from the status in PepcDB or PDB records
row,Sequence,soluble on expression in E. coli
1,MNIGSAIREIRQRRGITIAQICEGTGLSKGFMSQVENNKTSPSISTLETISNFLNVPLPYLLLEQKDRLKIVKKEERKYSVYGKDEQRIEHVAEQGGLRLSLVEIPTGFPKENSPNAHEGEECHLVLRGKLEVQHGEDIAIVEEGDSFSWNACVPHIVRNIGEETALLLISSYAENRQRVY,not soluble
2,LEDFNVTSKVIELDVRKPTPEAAENLNIGMDEDIYYVKRVRYINGQTLCYEESYYTKSIVTYLNNEIVSHSIFHYIREGLGLKIGFSDLFLHVGQLNEEEAEYLGLEAGLPKLYIESIFHLTNGQPFDYSKISYNYEQSQ,not soluble
3,AEKRIGLMLFGKGNIGSRWLELFAREQTTLSARTGFEFILAGVVDSKRSLLNYDGLDASRALAFFNDEAVEQDEESLFLWMRAHPYDDLVVLDVTASEQLADQYLDFASHGFHVISANKLAGASSSDKYRQIHDAFEKTGRHWLYNATVGAGLPVNHTVRDLIDSGDTILGLSGIFSGTLSWLFLQ,not soluble
4,MGSDKIHHHHHHMMAPNQFSSGDVIADRRADYARMLAESGDYPAAAELMEQALELAPRWTAGWFRFGEYHEKAGETAKAVAAYEKVAELDAEGLFAAELKLAVLGAAETPEQPPSRYVEGLFDDYADRFETSLVEKLDYSVPQKLAELIGKAATGDAFDTIVDIGCGTGLLGIEIRSLAKRLEGFDISQNMLAKADEKSLYDHLGQADLSLDAEASGLFTPVLTQHRADLVAAADVMMYLGSLETVMPLVSALLKPSGFFAFSVEDAGDEQGFVLRESLRYAHSKSYVIDLLERSGFSPMEIRKTTIRKDAGKPLSGILFLARAKA,not soluble
5,MAHHHHHHMERMSLAVVRQLDADHERGGIWYLSGHRDHVLSIAASSHGVFATCDAKGLGLLWKHDTSHSNSDPSHVSRISSEGPAIVAACFPSSTRLCTAQGNGRVGVWDIEASTEVQSLSRLPSRGKSVNWPVINALSAWESDLVAYGGDDGYLVLSSLAVRNPVVSVNLRVPITSVAAAATSLLVGDVLGNIRCFDTRTFKSLYCFQGHRGVVTSVSVKEDASLAVSYGMDDSLALWNALPFSLTTEDRLIHRGEFHQGDTKTLLRCDWATSGAALVPVSDGRVVYLSAPTLDGIRTILPGRHRREPAQCAAFIGDGYAVSSAETEVILQRI,not soluble
6,MSLAKTVEEINQKIREGNVVVVTAAEMKDIVEELGPEKAAKEVDVVTTGTFGAMCSSGAFFNFGHADPPIKMQRVWMNDVEAYTGIAAVDAYLGVTQLSESVEEYGGSHVIEELVKGREVELKATAYGTDCYPRKEIVTEVSLEDVNQAVMVNPRNAYQRYNAATNSSNKLLRTYMGTLLPNFGNVTFAGTGEISPLNNDPEYRTIGIGTRIFLCGAKGYVIGEGTQHAPPYGTLMVKGNLKEMKPEYMKAAYFPGYGATLFVGIGIPIPILDAEMAKFTAVRNSEIETKILDFGVARRDRPVVRKVTYEELISGRVEINGEEVRVSPLSSFYMAEKIMKELKRQIERGEFLLTAPVDRIPTKEVFKPMRQREVKVVKSVMVEAYTISPETAIEEAARIMMDKGINHIPVVEEGRLVGIITSWDIAKAVARNRKGAVKSIMTRNVIYTHPDEPVEVAARKMEQNNISALPVVDSRKRVLGIVTSEDLSKLIAREGHHHHHH,soluble
7,MGSDKIHHHHHHMKKIAILYPAHYEQSSGGAEIQILYLINACKQQNWEIHYIFEDKGTDIKNKENIVLHPLCKMKNYKFCGKGWFLYEKQILRELNAIKPDTIYTRIGSSWIGIATSYAKNHKVKHAHALASDSSVTRKLLGKPLYPLFSQIETYYINKGLVGADVIIAQNVFQQQMLSKRYGKESILVNQMTPSVDESCLQKKYNKIKIIWVANFKELKHPELFVQLAKDLKGHSDRIEMYMCGRSTSKYNNLLQDLNHIDYLNYLGSLDQEQVFDLMNEAHILVNTSEYEGFSNTFVQAWMRKVVVVSMNSNPSDILTSQGIGFLTPNMTNLVATIHKLIEHPEIISELGEKSYQYALENHDLNKNMKKIIEVL,not soluble
8,MSWIERIKSNITPTRKASIPEGVWTKCDSCGQVLYRAELERNLEVCPKCDHHMRMTARNRLHSLLDEGSLVELGSELEPKDVLKFRDSKKYKDRLASAQKETGEKDALVVMKGTLYGMPVVAAAFEFAFMGGSMGSVVGARFVRAVEQALEDNCPLICFSASGGARMQEALMSLMQMAKTSAALAKMQERGLPYISVLTDPTMGGVSASFAMLGDLNIAEPKALIGFAGPRVIEQTVREKLPPGFQRSEFLIEKGAIDMIVRRPEMRLKLASILAKLMNLPAPNPEAPREGVVVPPVPDQEPEA,soluble
9,MSLRNIKWAILGPGTIARDFAKAISEVDNNIYAVASRNIERAKKFANEYKAEKFYGDYDEMLRDENIDVVYISTPHCNHYEYIIKSLENNKHVFCEKAITVNGNQLKEIVDLANKKNLIVREAMTIYHMPLYKKLRELVDEGKIGKVKMIQVSFGSLKEYDVNNRFFSKDLAGGALLDIGTYALSFTRYFLSSQPEEILTTVKKFETGVDEQSGIILKNAEDEMAVISLTMRAKQPKRGVVAGEKAYITVENFPRADKATITYPDGSVEVVEAGETDRALVYEVQDMKACILNKDTDYTLQLSLGVMNIMDEVRSQWGIRYPFEEGHHHHHH,soluble
10,MNLSEITQQMGEVGKTLSDSVPELLNSTDLVNDPEKMLELQFAVQQYSAYVNVESGMLKTIKDLVSTISNRSF,not soluble
11,VINQVESASKVIDWPLALKRSANKADLAKEMLLGLVESLPETQLSIREAIDVQDIAQIKRLVHKLNGACCYTGTPNLAKITIQLETQLKMGLSTEELEPEFLEFFEHIEQVLFAVPEALKEMSEN,not soluble
12,MKEKIPFYNEKEFNEMMKKTKKGTFSGWYIINPENNSVEFSGSFNRQFKLNKPIIPVNTEYVTRKEFNEYKDSNDQRLIKIETTLTAQGEQINKLTQTVEKQGEQIRELQVEQKAQGEQIKAQGETLKLILQTLQKMSDRLDKIDPPKLEHHHHHH,not soluble
13,MGSDKIHHHHHHMAEINYQLIDFDNRGDLGLKNEPFELFGRMKIDRLNNNWSYEVEIFTHKRTMAFPDERYHLQEINQNGFALGAYDDSNCVGLAIYQKHWNKYLYLKDLKVNRDHRKLGIGNQLIKEGLRRAVQLGYKGVYAVCQDNNLAACQFYLKIGFQIGGFNDFDYNYTTQSGKSDIYFYLDKNSAR,not soluble
14,MSGIKSLELLLQSMSPELMAGDYVFCTVNGALSDYLSLEPIATFREPEGLTLVLEAEKAQQAGLESSALFSLITLTVHSSLEAVGLTAAFATKLAEHGISANVIAGYYHDHIFVQKEKAQQALQALGEFAQA,soluble
15,MGSDKIHHHHHHAAIIFAFLYFTNNHKTDLESTISEQWNKITTFFSNDFSLPDTMSKLSTDNYKHEAGSRWSQNSASVYIASTDKTIVKAYQTALANWNATGSFTFNIISDKASADITAKDYSDVNSQAAGLAETETNAVTNRMSHVDVKLNRYYLLDASYGYSFDRIVHTAEHELGHAIGLDHDDKETSVMASSGSYNGIQTVDITAVKKLYAN,not soluble
16,MLKKGNEMKAVIVYASVHHGNTKKIEEAMASVISADVIDVTRKIKPDLSGYDVIGFVSGVYFHTFHEGIKKCIEENMSSKGQKVFLVATCGLGYRDYTKGMKDTLAKKDVLCMGSFQCRGWDTYGIFGKIGGIAKKHPNDRDLKEAQEFVLKTVCKTNNLEHHHHHH,not soluble
17,SMALYRVVLLGDPGVGKTSLASLFAGKQERDLHEQLGEDVYERTLTVDGEDTTLVVVDTWEAEKLDKSWSQESCLQGGSAYVIVYSIADRGSFESASELRIQLRRTHQADHVPIILVGNKADLARCREVSVEEGRACAVVFDCKFIETSATLQHNVAELFEGVVRQLRLRRRDSA,soluble
18,MSINGISGASPLVALQGPSASQRPEPVSSTDRAQAPAFSERLGSALEGLAKSQTEAAEKASAFERGEGGNLAEVMVSQQVSSLGFQLALNVRNKALGAYRDIMNMPV,not soluble
19,SKDELGEVIHAFNRMMTKLRKREKQRQHSLATLEQKRAFSEEVIESIQYALVITDNLGTIIHSNAATQHIFQKTPEALENANIRDLIKTKMPNELSQILSRCLECDDIHLQNIDNEQQLSLTTRRLSNHGYLLFAIQD,not soluble
20,GMSTSPADTARYNRFVADLFGMMAYGELSAFERFSADARYSPTLHDRAVLGRIAVVEFRHYELVSARLEAMGIDAEDAMLPFQAAVDYFHSRTRPADWYESLMKAYVIDTVSADFYRAISRYVDAGTRDVIEQIQASDETTEVLRERLRSALADDPRLASRLALWGRRLLGEALTQAQRVSYEHAFLGSLIGGEDSAAAKELVSGLIAGLAEKHSKRMTQLGLTG,soluble
21,GPGSMTDYIRDGQAIYDRSFAIIRAEADLRHIPADLEKLAVRVIHACGMVDVANDLAFSEGAGKAGRNALLAGAPILCDARMVAEGITRSRLPADNRVIYTLSDPSVPELAKKIGNTRSAAALDLWLPHIEGSIVAIGNAPTALFRLFELLDAGAPKPALIIGMPVGFVGAAESKDELAANSRGVPYVIVRGRRGGSAMTAAAVNALASERE,soluble
22,MGSDKIHHHHHHMTNEYEHLNAIQKIGLSILKEIIAICKRHDLTYYVYGGTLLGAIRHQGFIPWDDDVDIAMSRKDFEKLKQYQNEFPQYMFLDTIQQKGHQWTAAHVVDTRYKLEVGKGMKKATMSVWVDILIIDGVPNPGTFKYKIFSAAYLTARLLYKFSNFSNEVDLEKDRSAIETFFISFARITHIEKVINQHWAGCFIDWISRRYDLDKCEYGATLGGPQKMGETQPKYWFGKGKELLFEDIIVNGMEETENFLTKFYGPNYMTPPPLDKRNQHNVRLVEKIV,not soluble
23,MGSDKIHHHHHHMTSREQIIELIKSGEFTQAELARQMGVNSGALSSYLGGKYKGNVENIENVLASWLSTRDKKEKVFVEAPHFIEIPTADKVFKALDMARFCKTIVPIFGASGVGKTKACQEYKKRYQNVWMITISPSRASLNAFLYELALELGIKDAPRRKDRLSRLILDNLKDTEGLVIVDESDHLTYDSIEELRYLQEKAEVGFALIGNNKVYTKMQGGANQAHEYARLWNRIGKKCQIKASKKGDIKAVAQAWGLDVQDKDLMTVLYDIGGKAGGLRALTQYLRLAGMTAKGQGTGITLDLILTAQAEMTGSE,not soluble
24,MRTNVPDQQSTVQKLLDENSRLIDIIQEYLNQSRADEAIKHQQLLHRNLLHLSNLADPFLLSQLKDDGTAAAALPDPNQQQPQPGASGPPAPHLQQQQPQHSPQQGHPHPQQGLPAAHHRQQMMPPQAAPSPGGPMQPPHGFAPPPMGGGVPPEMMNHQAYQAQMRQQQQQPNGQAPPPVYPPFGQPAPQMSGQRMPYPYPPQGMPGYPGGPPPPPHGYEGYPPPGAQPGYMR,soluble
25,MKASVRWVECPRDAWQGFSRFIPTEEKVAFLNELLEAGFAHLDLTSFVSPKWVPQMQDAEEVLKALPPPNGRTYLAIVANEKGLERALAAPNLTHVGYPFSLSETFQQRNTNRSIEASWPLVGAMVERTEGRLGLVVYLSMAFGNPYGDPWSVEAVLEALARLKEMGVREIALADTYGVAEPERIHEVLKAAVARFGPEGLGAHLHARPEGALAKVEAVLAAGVTWLEGALAGVGGCPFAGDELVGNLPTEVVLPHLEKRGLATGVDLSRLPLLAEEAARLKALYA,soluble
26,MGKLAFLFPGQGSQAVGMGKQLAENNKEVANVFAKADEVLQDSLSEVIFEGSQEKLTLTTNAQPALLTTSFAILTALKEYDITPDFVAGHSLGEYSALVAAGALTFEDAVYAVRKRGEYMEEAVPGGEGAMAAILGADPHMLKRVTEEVTGEGYAVQIANMNSTKQIVISGTKQGVEIASQRAKENGAKRAIPLKVSGPFHSALMKPAAEKFQSVLNEITIQDTNIPVIANVTADVITSGAHIQEKLIEQLYSPVLWYPSIEYMVNQGVDTFIEIGPGKVLAGLMKSIDSSVKAYAIYDEETLKDTISNLRGEN,not soluble
